This is an account of results in US20220073617A1 (Five Prime, published 2022).

B1: P1-064391 (41F11_HC_Mutant: D31E/Y50W/S55E/Y100E 41F11_LC_Mutant: V29D/A64G/R91T) (antibody, V domains shown)
VH: QVQLVESGGGLVKPGGSLRLSCAASGFTFSEYYMSWIRQAPGKGLEWVSWISNSGEPIYYADSVKGRFTISRDNAKNSLYLQMNSLRAEDTAVYYCARDLPGWEFDLWGRGTLVTVSS
VL: EIVLTQSPATLSLSPGERATLSCRASQSDSSYLAWYQQKPGQAPRLLIYDASNRATGIPARFSGSGSGTDFTLTISSLEPEDFAVYYCQQTNNWPRTFGQGTKVEIK
notes: Kabat positions; also called P1-064391-1
B2: P1-064392 (41F11_HC_Mutant: D31E/Y50W/S55E/Y100E 41F11_LC_Mutant: V29D/A64G/Q89E/R91T) (antibody, V domains shown)
VH: B1 VH
VL: B1 VL with Q89E
notes: Kabat positions; also called P1-064392-1
B3: P1-061528 (41F11 NGS mut VK_A64G/R91A) (antibody, V domains shown)
VH: B1 VH with E31D, W50Y, E56S, E104Y
VL: B1 VL with D29V, T91A
notes: also called P1-061528-2
B4: P1-064490 (41F11_VH_F27EY50EL96E) (antibody, V domains shown)
VH: B1 VH with F27E, E31D, W50E, E56S, L100E, E104Y
VL: B1 VL with D29V, G64A, T91R
notes: Kabat positions; also called P1-064490-1; P1-064490-2
B5: P1-063153 (41F11_HC_mutant: D31E/Y50W/S55E/Y100E) (antibody, V domains shown)
VH: B1 VH
VL: B1 VL with D29V, G64A, T91R
notes: Kabat positions; also called P1-063153-5
B6: P1-065064 (41F11_LC_Mutant: V29D/A64G/R91T) (antibody, V domains shown)
VH: B1 VH with E31D, W50Y, E56S, E104Y
VL: B1 VL
notes: Same printed description as P1-063001 under another ID; also called P1-065064-1
B7: P1-063125 (41F11_HC_Mutant: T28P/Y50W/S55E/Y100E) (antibody, V domains shown)
VH: B1 VH with T28P, E31D
VL: B1 VL with D29V, G64A, T91R
notes: Kabat positions; also called P1-063125-5
B8: P1-063001 (41F11_LC_Mutant: V29D/A64G/R91T) (antibody, V domains shown)
VH: B1 VH with E31D, W50Y, E56S, E104Y
VL: B1 VL
notes: also called P1-063001-5; P1-063001-6

Changes are numbered by the printed parent chain. Numbers in names are those of the source. Where “and” joins values, the source holds several entries; their conditions need not be identical. Equal entries are not always repeated.

T1 sequence (Q9H7M9 other isoform, or with tags, fused parts or gaps limits assumed): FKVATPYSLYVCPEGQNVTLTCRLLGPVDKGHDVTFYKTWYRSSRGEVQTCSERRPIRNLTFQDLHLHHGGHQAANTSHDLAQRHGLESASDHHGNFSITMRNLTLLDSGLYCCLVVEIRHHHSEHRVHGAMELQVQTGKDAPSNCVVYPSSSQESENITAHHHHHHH

One assay addresses T1, monovalent hVISTA-ECD (human VISTA extracellular domain with His tail) (human, UniProt Q9H7M9 33-193).
T1 construct: analyte flowed over captured antibody; also called huVISTA-His
The assay can be described thus: SPR, pH 7.4. As to the method:
(§1) Binding of several preparations of each of the '029 progeny clones and of the parent '029 antibodies, formatted as IgG1.3 antibodies, to human VISTA at pH 6.0 and 7.4 was measured by Surface plasmon resonance (SPR). SPR analysis was performed to measure koff and KD binding affinity measurements for VISTA Abs at acidic and neutral pHs using a Biacore® T100 instrument (GE Healthcare). Protein A (ThermoFisher Scientific catalog #21181) was diluted to 20 ug/ml in 10 mM sodium acetate pH 4.5 and immobilized onto flow cells of a CM5 biosensor following the manufacturer's amine coupling protocol (GE Healthcare), targeting 2,000 RU immobilization density of Protein A per flow cell. SPR experiments were conducted at 37° C. using PBST (137 mM sodium chloride, 2.7 mM potassium chloride, 10 mM phosphate buffer, 0.05% Tween® 20) running buffer at pH 7.4 and 6.0. Antibodies were diluted to 25 nM in PBST pH 7.4, and were captured across active biosensor flow cells at 5 ul/min for 60 seconds. […] Two 15 second injections of 10 mM glycine pH 1.5 were used to regenerate the Protein A capture surface between assay cycles. Rate constants ka (kₒₙ) and kd (koff) were derived from reference flow cell and 0 nM blank-subtracted sensorgrams, and were fit to a 1:1 binding model in Biacore® T200 Evaluation Software v.2.0. The affinity constant, KD was calculated as the ratio of rate constants koff/kₒₙ for each VISTA antibody.
(§2) This initial campaign led to pH-independent VISTA.4 variants with near equivalent koff at pH 6 and pH 7. In order to obtain an antibody that binds to hVISTA with high affinity at pH 6.0 and low affinity at pH 7.0, a new library based on consensus sequence of pH-independent VISTA.4 variants was designed and constructed, with amino acid residues in the loops substituted for charge amino acid residues (see Example 9), and screened via yeast surface display (see Example 9). The library was analyzed as previously described (see Example 9) and selected variants were reformatted as IgG1.3 for further analysis (Tables 26 and 27). SPR analysis was conducted on these variants using the conditions previously described in Example 9.
(SPR reads the build-up and loss of mass on a sensor chip optically.)
As usually defined, the Kd is the concentration at which binding is half-saturated. As usually defined, the koff is the rate constant with which the complex falls apart. What is called kon is a measure of how fast the partners come together. Lower therefore signals slow association. B1 registered a Kd of 31 nM, a koff of 0.019 s⁻¹ and a kon of 630000 M⁻¹ s⁻¹.
On the same counts, the results for B2 are 11 nM, 0.0078 s⁻¹ and 770000 M⁻¹ s⁻¹.

For a further assay, the target named is T1, monovalent hVISTA-ECD (human VISTA …). In words: SPR, pH 6.0. As to the method: as §1
For the molecule B3, binding was characterised by a dissociation constant (Kd) of 4.7 nM, the “kd improvement vs parent” value was 51.4 fold, the koff is 0.0021 s⁻¹ and the kon was found to be 450000 M⁻¹ s⁻¹.
On the same counts, the results for B4 are 22 nM, 8.2 fold, 0.013 s⁻¹ and 600000 M⁻¹ s⁻¹.
With B5, the Kd came to 0.13 nM, the “kd improvement vs parent” value is 233 fold, the koff worked out at 0.00046 s⁻¹ and the kon amounted to 3.6e+06 M⁻¹ s⁻¹.
Take B6: binding was characterised by a dissociation constant (Kd) of 1.1 nM, the “kd improvement vs parent” value is 80.5 fold, the koff stood at 0.0013 s⁻¹ and the kon worked out at 1.3e+06 M⁻¹ s⁻¹.
On the same counts, the results for B7 are 0.25 nM, 136 fold, 0.00079 s⁻¹ and 3.1e+06 M⁻¹ s⁻¹.
On the same counts, the results for B8 are 1 nM, 81.7 fold, 0.0013 s⁻¹ and 1.3e+06 M⁻¹ s⁻¹.
Consider B1, for which binding was put at a Kd of 6.4 nM, the “kd improvement vs parent” value was found to be 3.3 fold, the koff is 0.033 s⁻¹ and the on-rate constant (kon) was 5.1e+06 M⁻¹ s⁻¹.
In the same order, the values of B2 are 1.8 nM, 12.4 fold, 0.0086 s⁻¹ and 4.8e+06 M⁻¹ s⁻¹.

For a further assay the target is unchanged. The assay can be described thus: SPR, pH 6.0. This is another data set of the same source. As to the method: as §1, with “antibody. […]” for “antibody.”
As for B3, binding was characterised by a dissociation constant (Kd) of 3.86 nM, the koff came to 0.00237 s⁻¹ and the kon turned out to be 616000 M⁻¹ s⁻¹.
With B4, the Kd is 34.8 nM and 31.4 nM; the koff was 0.00726 s⁻¹ and 0.00818 s⁻¹; the kon is 209000 M⁻¹ s⁻¹ and 260000 M⁻¹ s⁻¹.
On to B5, for which the Kd was 0.139 nM and 0.223 nM; the koff was 0.00114 s⁻¹ and 0.000909 s⁻¹; the kon was 8.19e+06 M⁻¹ s⁻¹ and 4.07e+06 M⁻¹ s⁻¹.
With B7, the Kd was 0.356 nM and 0.435 nM; the koff was 0.00124 s⁻¹ and 0.0012 s⁻¹; the kon is 3.47e+06 M⁻¹ s⁻¹ and 2.77e+06 M⁻¹ s⁻¹.
In the case of B8, the Kd was 0.644 nM and 0.751 nM; the koff is 0.00168 s⁻¹ and 0.00171 s⁻¹; the kon was 2.61e+06 M⁻¹ s⁻¹ and 2.28e+06 M⁻¹ s⁻¹.

The next assay has the same target. In words: SPR, pH 6.0. This is another data set of the same source. The procedure:
as §1, §2
B1: the Kd stood at 10 nM, the koff came to 0.027 s⁻¹ and the kon is 2.7e+06 M⁻¹ s⁻¹.
In the same order, the values of B2 are 1.6 nM, 0.012 s⁻¹ and 7.7e+06 M⁻¹ s⁻¹.

A further assay shares this target. In words: SPR, pH 7.4. The source holds these as a separate data set. As to the method: as §1, with “antibody. […]” for “antibody.”
For B3, binding was put at a Kd of 30.4 nM, the koff is 0.00019 s⁻¹ and the kon was 6260 M⁻¹ s⁻¹.
In the case of B4, the koff was 0.00266 s⁻¹ and 0.0023 s⁻¹.
Regarding B5, the Kd is 0.101 nM and 0.0675 nM; the koff was 6.9e-05 s⁻¹ and 4.05e-05 s⁻¹; the association rate constant (kon) was 685000 M⁻¹ s⁻¹ and 600000 M⁻¹ s⁻¹.
In the case of B7, the Kd is 0.365 nM and 0.32 nM; the koff was 0.000178 s⁻¹ and 0.000141 s⁻¹; the kon was 488000 M⁻¹ s⁻¹ and 441000 M⁻¹ s⁻¹.
For the molecule B8, the Kd was 0.665 nM and 0.737 nM; the koff was 0.00013 s⁻¹ and 0.00012 s⁻¹; the kon is 195000 M⁻¹ s⁻¹ and 163000 M⁻¹ s⁻¹.

The next assay has the same target. The assay can be described thus: SPR. The procedure: as §1
As to B3, the “pH 6.0/7.4 KD” value is 3.3 and the “pH 6.0/7.4 kd” value worked out at 12.
On the same counts, the results for B4 are 0.3 and 4.
For the molecule B5, the “pH 6.0/7.4 KD” value came out at 0.8 and the “pH 6.0/7.4 kd” value was found to be 3.9.
With B6, the “pH 6.0/7.4 KD” value turned out to be 3 and the “pH 6.0/7.4 kd” value was 11.2.
Consider B7, for which the “pH 6.0/7.4 KD” value was found to be 0.9 and the “pH 6.0/7.4 kd” value was found to be 3.9.
On the same counts, the results for B8 are 2.7 and 10.2.
On the same counts, the results for B1 are 0.2 and 2.1.
As for B2, the “pH 6.0/7.4 KD” value was 0.1 and the “pH 6.0/7.4 kd” value was 1.2.

For the next assay the target is unchanged. In words: SPR. This is another data set of the same source. The procedure: as §1, with “antibody. […]” for “antibody.”
As for B3, the “KD ratio (pH 7.4/pH 6.0)” value came out at 7.88.

The target is the same in the next assay. The assay can be described thus: SPR, pH 7.4. The source holds these as a separate data set. As to the method: as §1
With B3, binding was characterised by a dissociation constant (Kd) of 1.4 nM, the “kd improvement vs parent” value came out at 5.1 fold, the koff was determined as 0.00017 s⁻¹ and the on-rate constant (kon) turned out to be 120000 M⁻¹ s⁻¹.
In the same order, the values of B4 are 75 nM, 0.3 fold, 0.0032 s⁻¹ and 43000 M⁻¹ s⁻¹.
On the same counts, the results for B5 are 0.15 nM, 7.4 fold, 0.00012 s⁻¹ and 780000 M⁻¹ s⁻¹.
As for B6, the Kd came to 0.36 nM, the “kd improvement vs parent” value was 7.4 fold, the koff is 0.00012 s⁻¹ and the kon amounted to 330000 M⁻¹ s⁻¹.
In the same order, the values of B7 are 0.27 nM, 4.3 fold, 0.0002 s⁻¹ and 770000 M⁻¹ s⁻¹.
On to B8, for which binding was put at a Kd of 0.38 nM, the “kd improvement vs parent” value was 6.8 fold, the koff came out at 0.00013 s⁻¹ and the kon worked out at 340000 M⁻¹ s⁻¹.
On the same counts, the results for B1 are 37 nM, 0.1 fold, 0.016 s⁻¹ and 430000 M⁻¹ s⁻¹.
In the same order, the values of B2 are 15 nM, 0.1 fold, 0.007 s⁻¹ and 470000 M⁻¹ s⁻¹.
